Assay results from article PMC4805542.

System: ZF6-DB (synthetic construct)
Experiment: EMSA
Conditions: 1.5 uM protein, DNA titrated 145-250 nM; apparent Kd, Scatchard; 6.25 mM MgCl2; 25 mM Hepes pH 7.9, 50 mM KCl, 6.25 mM MgCl2, 1% Nonidet P-40, 5% glycerol; 15 min on ice; 5% PAGE in 0.5x TBE at 4 C

## hRHO 65 bp duplex oligonucleotide
  Kd: 41.9 nM
